According to patent US20170306033A1 (Amgen, published 2017):

T1: human PAC1 receptor (human, UniProt P41586 21-468)
T1 sequence: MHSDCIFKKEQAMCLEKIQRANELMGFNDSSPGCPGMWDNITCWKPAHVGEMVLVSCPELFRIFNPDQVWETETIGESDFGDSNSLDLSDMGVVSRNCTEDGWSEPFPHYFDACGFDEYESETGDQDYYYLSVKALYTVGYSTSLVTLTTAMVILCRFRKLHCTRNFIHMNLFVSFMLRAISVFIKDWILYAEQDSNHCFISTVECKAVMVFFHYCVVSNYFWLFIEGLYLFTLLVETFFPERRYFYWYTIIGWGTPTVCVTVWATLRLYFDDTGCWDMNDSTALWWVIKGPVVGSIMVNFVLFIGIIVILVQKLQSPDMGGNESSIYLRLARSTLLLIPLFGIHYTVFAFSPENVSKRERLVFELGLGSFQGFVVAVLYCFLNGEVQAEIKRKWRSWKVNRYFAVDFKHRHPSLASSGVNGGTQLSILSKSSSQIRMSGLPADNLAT


What was measured:
[1] = target: human CGRP receptor (human, UniProt Q16602 23-461; O60894 27-148); test: cell-based or functional assay
[2] = target: T1, human PAC1 receptor; test: cell-based or functional assay

Sequence of human CGRP receptor (Q16602 23-461 limits assumed, chain 1 of 2): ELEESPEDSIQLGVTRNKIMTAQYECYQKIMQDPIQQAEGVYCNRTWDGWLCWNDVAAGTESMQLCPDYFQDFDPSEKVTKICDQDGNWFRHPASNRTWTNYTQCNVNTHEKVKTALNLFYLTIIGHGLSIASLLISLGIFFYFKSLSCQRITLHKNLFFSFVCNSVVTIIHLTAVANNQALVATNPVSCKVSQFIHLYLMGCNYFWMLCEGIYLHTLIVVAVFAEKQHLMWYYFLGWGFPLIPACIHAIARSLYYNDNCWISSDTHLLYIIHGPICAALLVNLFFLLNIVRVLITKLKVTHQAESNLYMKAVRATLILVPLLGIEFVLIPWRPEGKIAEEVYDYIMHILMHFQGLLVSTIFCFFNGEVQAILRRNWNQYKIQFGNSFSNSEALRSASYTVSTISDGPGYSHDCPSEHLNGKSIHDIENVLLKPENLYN
Sequence of human CGRP receptor (O60894 27-148 limits assumed, chain 2 of 2): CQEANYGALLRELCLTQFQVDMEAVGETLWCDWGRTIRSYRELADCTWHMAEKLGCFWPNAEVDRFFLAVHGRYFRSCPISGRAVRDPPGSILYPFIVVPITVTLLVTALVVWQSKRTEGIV

Binder	% inhibition of human CGRPR [1]	% inhibition of human PAC1 [2]
iPS:327697 (bispecific antibody, human IgG1, kappa, lambda, N297G) light 1: DIQLTQSPSFLSASVGDRVTITCRASQSIGRSLHWYQQKPGKAPKLLIKYASQSLSGVPSRFSGSGSGTEFTLTISSLQPEDFATYYCHQSSRLPFTFGEGTKVDIKRTVAAPSVFIFPPSDEQLKSGTASVVCLLNNFYPREAKVQWKVDNALQSGNSQESVTEQDSKDSTYSLESTLTLSKADYEKHKVYACEVTHQGLSSPVTKSFNRGEC heavy 1: not shown light 2: QSVLTQPPSVSAAPGQKVTISCSGSSSNIGNNYVSWYQQLPGTAPKLLIYDNNKRPSGIPDRFSGSKSGTSTTLGITGLQTGDEADYYCGTWDSRLSAVVFGKGTKLTVLGQPKANPTVTLFPPSSEELQANKATLVCLISDFYPGAVTVAWKADGSPVKAGVETTKPSKQSNNKYAAKSYLSLTPEQWKSHRSYSCQVTHEGSTVEKTVAPTECS heavy 2: QVQLVESGGGVVQPGRSLRLSCAASGFTFSSFGMHWVRQAPGKELEWVAVISFDGSIKYSVDSVKGRFTISRDNSKNTLFLQMNSLRAEDTAVYYCARDRLNYYESSGYYHYKYYGMAVWGQGTTVTVSSASTKGPSVFPLAPSSKSTSGGTAALGCLVKDYFPEPVTVSWNSGALTSGVHTFPAVLQSSGLYSLESVVTVPSSSLGTQTYICNVNHKPSNTKVDKKVEPKSCDKTHTCPPCPAPELLGGPSVFLFPPKPKDTLMISRTPEVTCVVVDVSHEDPEVKFNWYVDGVEVHNAKTKPCEEQYGSTYRCVSVLTVLHQDWLNGKEYKCKVSNKALPAPIEKTISKAKGQPREPQVYTLPPSRKEMTKNQVSLTCLVKGFYPSDIAVEWESNGQPENNYKTTPPVLKSDGSFFLYSKLTVDKSRWQQGNVFSCSVMHEALHNHYTQKSLSLSPGK	88%	39%
iPS:327709 (bispecific antibody, human IgG1, kappa, lambda, N297G) light 1: DIQLTQSPSFLSASVGDRVTITCRASQSIGRSLHWYQQKPGKAPKLLIKYASQSLSGVPSRFSGSGSGTEFTLTISSLQPEDFATYYCHQSSRLPFTFGEGTKVDIKRTVAAPSVFIFPPSDEQLKSGTASVVCLLNNFYPREAKVQWKVDNALQSGNSQESVTEQDSKDSTYSLESTLTLSKADYEKHKVYACEVTHQGLSSPVTKSFNRGEC heavy 1: not shown light 2: QSVLTQPPSVSAAPGQKVTISCSGSSSNIGNNYVSWYQQLPGTAPKLLIYDNNKRPSGIPDRFSGSKSGTSATLGITGLQTGDEADYYCGTWDSRLSAVVFGKGTKLTVLGQPKANPTVTLFPPSSEELQANKATLVCLISDFYPGAVTVAWKADGSPVKAGVETTKPSKQSNNKYAAKSYLSLTPEQWKSHRSYSCQVTHEGSTVEKTVAPTECS heavy 2: QVQLVESGGGVVQPGRSLRLSCAASGFTFSSFGMHWVRQAPGKELEWVAVISFDGSIKYSVDSVKGRFTISRDNSKNTLFLQMNSLRAEDTAVYYCARDRLNYYDSSGYYHYKYYGMAVWGQGTTVTVSSASTKGPSVFPLAPSSKSTSGGTAALGCLVKDYFPEPVTVSWNSGALTSGVHTFPAVLQSSGLYSLESVVTVPSSSLGTQTYICNVNHKPSNTKVDKKVEPKSCDKTHTCPPCPAPELLGGPSVFLFPPKPKDTLMISRTPEVTCVVVDVSHEDPEVKFNWYVDGVEVHNAKTKPCEEQYGSTYRCVSVLTVLHQDWLNGKEYKCKVSNKALPAPIEKTISKAKGQPREPQVYTLPPSRKEMTKNQVSLTCLVKGFYPSDIAVEWESNGQPENNYKTTPPVLKSDGSFFLYSKLTVDKSRWQQGNVFSCSVMHEALHNHYTQKSLSLSPGK	82%	29%
iPS:327707 (bispecific antibody, human IgG1, kappa, lambda, N297G) light 1: DIQMTQSPSSLSASVGDRITITCRASQSISRYLNWYQQKPGKAPKLLIYAASSLQSGIPSRFSGSGSGTDFTLTINSLQPEDFATYFCQQSYSPPFTFGEGTKVDIKRTVAAPSVFIFPPSDEQLKSGTASVVCLLNNFYPREAKVQWKVDNALQSGNSQESVTEQDSKDSTYSLESTLTLSKADYEKHKVYACEVTHQGLSSPVTKSFNRGEC heavy 1: not shown light 2: QSVLTQPPSVSAAPGQKVTISCSGSSSNIGNNYVSWYQQLPGTAPKLLIYDNNKRPSGIPDRFSGSKSGTSATLGITGLQTGDEADYYCGTWDSRLSAVVFGKGTKLTVLGQPKANPTVTLFPPSSEELQANKATLVCLISDFYPGAVTVAWKADGSPVKAGVETTKPSKQSNNKYAAKSYLSLTPEQWKSHRSYSCQVTHEGSTVEKTVAPTECS heavy 2: QVQLVESGGGVVQPGRSLRLSCAASGFTFSSFGMHWVRQAPGKELEWVAVISFDGSIKYSVDSVKGRFTISRDNSKNTLFLQMNSLRAEDTAVYYCARDRLNYYDSSGYYHYKYYGMAVWGQGTTVTVSSASTKGPSVFPLAPSSKSTSGGTAALGCLVKDYFPEPVTVSWNSGALTSGVHTFPAVLQSSGLYSLESVVTVPSSSLGTQTYICNVNHKPSNTKVDKKVEPKSCDKTHTCPPCPAPELLGGPSVFLFPPKPKDTLMISRTPEVTCVVVDVSHEDPEVKFNWYVDGVEVHNAKTKPCEEQYGSTYRCVSVLTVLHQDWLNGKEYKCKVSNKALPAPIEKTISKAKGQPREPQVYTLPPSRKEMTKNQVSLTCLVKGFYPSDIAVEWESNGQPENNYKTTPPVLKSDGSFFLYSKLTVDKSRWQQGNVFSCSVMHEALHNHYTQKSLSLSPGK	73%	72%

Second part, the binder after the results:

% inhibition of human CGRPR [1]	% inhibition of human PAC1 [2]	Binder
90%	96%	iPS:327698 (bispecific antibody, human IgG1, kappa, lambda, N297G) light 1: EIVLTQSPATLSLSPGERATLSCRASQSVGRSLHWYQQKPGQAPRLLIKYASQSLSGIPARFSGSGSGTDFTLTISSLEPEDFAVYYCHQSSRLPFTFGEGTKVDIKRTVAAPSVFIFPPSDEQLKSGTASVVCLLNNFYPREAKVQWKVDNALQSGNSQESVTEQDSKDSTYSLESTLTLSKADYEKHKVYACEVTHQGLSSPVTKSFNRGEC heavy 1: not shown light 2: QSVLTQPPSVSAAPGQKVTISCSGSSSNIGNNYVSWYQQLPGTAPKLLIYDNNKRPSGIPDRFSGSKSGTSTTLGITGLQTGDEADYYCGTWDSRLSAVVFGKGTKLTVLGQPKANPTVTLFPPSSEELQANKATLVCLISDFYPGAVTVAWKADGSPVKAGVETTKPSKQSNNKYAAKSYLSLTPEQWKSHRSYSCQVTHEGSTVEKTVAPTECS heavy 2: QVQLVESGGGVVQPGRSLRLSCAASGFTFSSFGMHWVRQAPGKELEWVAVISFDGSIKYSVDSVKGRFTISRDNSKNTLFLQMNSLRAEDTAVYYCARDRLNYYESSGYYHYKYYGMAVWGQGTTVTVSSASTKGPSVFPLAPSSKSTSGGTAALGCLVKDYFPEPVTVSWNSGALTSGVHTFPAVLQSSGLYSLESVVTVPSSSLGTQTYICNVNHKPSNTKVDKKVEPKSCDKTHTCPPCPAPELLGGPSVFLFPPKPKDTLMISRTPEVTCVVVDVSHEDPEVKFNWYVDGVEVHNAKTKPCEEQYGSTYRCVSVLTVLHQDWLNGKEYKCKVSNKALPAPIEKTISKAKGQPREPQVYTLPPSRKEMTKNQVSLTCLVKGFYPSDIAVEWESNGQPENNYKTTPPVLKSDGSFFLYSKLTVDKSRWQQGNVFSCSVMHEALHNHYTQKSLSLSPGK
66%	43%	iPS:326634 (bispecific antibody, human IgG2, kappa, lambda) light 1: DIQLTQSPSFLSASVGDRVTITCRASQSIGRSLHWYQQKPGKAPKLLIKYASQSLSGVPSRFSGSGSGTEFTLTISSLQPEDFATYYCHQSSRLPFTFGPGTKVDIKRTVAAPSVFIFPPSDEQLKSGTASVVCLLNNFYPREAKVQWKVDNALQSGNSQESVTEQDSKDSTYSLESTLTLSKADYEKHKVYACEVTHQGLSSPVTKSFNRGEC heavy 1: QVQLVESGAEVVKPGASVKVSCKASGFTFSRFAMHWVRQAPGQGLEWMGVISYDGGNKYYAESVKGRVTMTRDTSTSTLYMELSSLRSEDTAVYYCARGYDVLTGYPDYWGQGTLVTVSSASTKGPSVFPLAPCSRSTSESTAALGCLVKDYFPEPVTVSWNSGALTSGVHTFPAVLQSSGLYSLKSVVTVPSSNFGTQTYTCNVDHKPSNTKVDKTVERKCCVECPPCPAPPVAGPSVFLFPPKPKDTLMISRTPEVTCVVVDVSHEDPEVQFNWYVDGVEVHNAKTKPREEQFNSTFRVVSVLTVVHQDWLNGKEYKCKVSNKGLPAPIEKTISKTKGQPREPQVYTLPPSREEMTKNQVSLTCLVDGFYPSDIAVEWESNGQPENNYDTTPPMLDSDGSFFLYSDLTVDKSRWQQGNVFSCSVMHEALHNHYTQKSLSLSPGK light 2: not shown heavy 2: not shown
72%	92%	iPS:327699 (bispecific antibody, human IgG1, kappa, lambda, N297G) light 1: not shown heavy 1: not shown light 2: QSVLTQPPSVSAAPGQKVTISCSGSSSNIGNNYVSWYQQLPGTAPKLLIYDNNKRPSGIPDRFSGSKSGTSTTLGITGLQTGDEADYYCGTWDSRLSAVVFGGGTKLTVLGQPKANPTVTLFPPSSEELQANKATLVCLISDFYPGAVTVAWKADGSPVKAGVETTKPSKQSNNKYAAKSYLSLTPEQWKSHRSYSCQVTHEGSTVEKTVAPTECS heavy 2: QVQLVESGGGVVQPGRSLRLSCAASGFTFSSFGMHWVRQAPGKGLEWVAVISFDGSIKYSVDSVKGRFTISRDNSKNTLFLQMNSLRAEDTAVYYCARDRLNYYESSGYYHYKYYGMAVWGQGTTVTVSSASTKGPSVFPLAPSSKSTSGGTAALGCLVKDYFPEPVTVSWNSGALTSGVHTFPAVLQSSGLYSLESVVTVPSSSLGTQTYICNVNHKPSNTKVDKKVEPKSCDKTHTCPPCPAPELLGGPSVFLFPPKPKDTLMISRTPEVTCVVVDVSHEDPEVKFNWYVDGVEVHNAKTKPCEEQYGSTYRCVSVLTVLHQDWLNGKEYKCKVSNKALPAPIEKTISKAKGQPREPQVYTLPPSRKKMTKNQVSLTCLVKGFYPSDIAVEWESNGQPENNYKTTPPVLKSDGSFFLYSKLTVDKSRWQQGNVFSCSVMHEALHNHYTQKSLSLSPGK
79%	18%	iPS:327708 (bispecific antibody, human IgG1, kappa, lambda, N297G) light 1: not shown heavy 1: not shown light 2: QSVLTQPPSVSAAPGQKVTISCSGSSSNIGNNYVSWYQQLPGTAPKLLIYDNNKRPSGIPDRFSGSKSGTSATLGITGLQTGDEADYYCGTWDSRLSAVVFGKGTKLTVLGQPKANPTVTLFPPSSEELQANKATLVCLISDFYPGAVTVAWKADGSPVKAGVETTKPSKQSNNKYAAKSYLSLTPEQWKSHRSYSCQVTHEGSTVEKTVAPTECS heavy 2: QVQLVESGGGVVQPGRSLRLSCAASGFTFSSFGMHWVRQAPGKELEWVAVISFDGSIKYSVDSVKGRFTISRDNSKNTLFLQMNSLRAEDTAVYYCARDRLNYYDSSGYYHYKYYGMAVWGQGTTVTVSSASTKGPSVFPLAPSSKSTSGGTAALGCLVKDYFPEPVTVSWNSGALTSGVHTFPAVLQSSGLYSLESVVTVPSSSLGTQTYICNVNHKPSNTKVDKKVEPKSCDKTHTCPPCPAPELLGGPSVFLFPPKPKDTLMISRTPEVTCVVVDVSHEDPEVKFNWYVDGVEVHNAKTKPCEEQYGSTYRCVSVLTVLHQDWLNGKEYKCKVSNKALPAPIEKTISKAKGQPREPQVYTLPPSRKEMTKNQVSLTCLVKGFYPSDIAVEWESNGQPENNYKTTPPVLKSDGSFFLYSKLTVDKSRWQQGNVFSCSVMHEALHNHYTQKSLSLSPGK
